From patent US20220204580A1 (AstraZeneca / MedImmune, published 2022)
Numbered stars: 1 amine (or outer) side, 2 acyl side, 3 side chain; on linkers, the order of the positions; unused ones are H or OH. Bridge positions count the residues as written; N and C are the ends. Square brackets hold non-standard residues; d marks the D form. Side chains are listed from the residue outwards. Ends that are not written are not given here. * marks the point of attachment. C20 diacid = O=C(O)CCCCCCCCCCCCCCCCCCC(=O)*; C18 diacid = O=C(O)CCCCCCCCCCCCCCCCC(=O)*; γGlu = O=C(O)[C@H](CCC(=O)[*:2])N[*:1]; αMeF = C[C@](N)(Cc1ccccc1)C(=O)O; Aib = CC(C)(N)C(=O)O

T1: human amylin receptor (calcitonin receptor co-expressed with receptor activity modifying protein, RAMP3) (human, UniProt P30988 25-474; O60896 24-148)
T1 sequence (looked up) 1: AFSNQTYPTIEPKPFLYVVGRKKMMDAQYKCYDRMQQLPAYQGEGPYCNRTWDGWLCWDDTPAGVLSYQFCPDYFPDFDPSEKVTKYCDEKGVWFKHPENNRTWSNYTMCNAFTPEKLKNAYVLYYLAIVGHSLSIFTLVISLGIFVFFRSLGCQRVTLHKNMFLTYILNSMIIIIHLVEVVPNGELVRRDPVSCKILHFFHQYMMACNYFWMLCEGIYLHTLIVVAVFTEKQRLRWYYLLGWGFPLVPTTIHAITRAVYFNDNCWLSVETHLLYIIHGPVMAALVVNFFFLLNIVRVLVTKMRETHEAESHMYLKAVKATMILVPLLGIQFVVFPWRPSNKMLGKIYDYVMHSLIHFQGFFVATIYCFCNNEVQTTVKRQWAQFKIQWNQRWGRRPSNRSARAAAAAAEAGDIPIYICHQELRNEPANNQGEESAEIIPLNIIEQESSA
T1 sequence (looked up) 2: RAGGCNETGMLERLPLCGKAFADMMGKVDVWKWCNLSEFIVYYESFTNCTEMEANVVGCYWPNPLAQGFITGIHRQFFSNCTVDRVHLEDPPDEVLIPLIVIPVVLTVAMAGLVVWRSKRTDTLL

T2: human calcitonin receptor (human, UniProt P30988 25-474)
T2 sequence (looked up): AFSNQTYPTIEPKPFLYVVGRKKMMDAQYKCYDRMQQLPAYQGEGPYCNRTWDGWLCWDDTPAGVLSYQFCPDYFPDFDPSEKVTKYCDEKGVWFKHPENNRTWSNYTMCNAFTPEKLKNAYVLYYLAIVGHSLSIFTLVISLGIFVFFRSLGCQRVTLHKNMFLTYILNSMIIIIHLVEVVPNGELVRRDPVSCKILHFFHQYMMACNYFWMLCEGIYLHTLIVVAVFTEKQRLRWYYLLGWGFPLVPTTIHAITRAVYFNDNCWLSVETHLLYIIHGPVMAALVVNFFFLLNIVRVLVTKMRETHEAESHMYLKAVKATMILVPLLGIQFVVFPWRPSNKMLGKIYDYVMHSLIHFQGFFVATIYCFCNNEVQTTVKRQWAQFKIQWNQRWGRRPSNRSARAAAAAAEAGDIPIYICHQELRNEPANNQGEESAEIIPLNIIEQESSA

T3: rat amylin receptor (calcitonin receptor co-expressed with receptor activity modifying protein, RAMP3) (rat, UniProt P32214 25-516; Q9JJ73 23-147)
T3 sequence (looked up) 1: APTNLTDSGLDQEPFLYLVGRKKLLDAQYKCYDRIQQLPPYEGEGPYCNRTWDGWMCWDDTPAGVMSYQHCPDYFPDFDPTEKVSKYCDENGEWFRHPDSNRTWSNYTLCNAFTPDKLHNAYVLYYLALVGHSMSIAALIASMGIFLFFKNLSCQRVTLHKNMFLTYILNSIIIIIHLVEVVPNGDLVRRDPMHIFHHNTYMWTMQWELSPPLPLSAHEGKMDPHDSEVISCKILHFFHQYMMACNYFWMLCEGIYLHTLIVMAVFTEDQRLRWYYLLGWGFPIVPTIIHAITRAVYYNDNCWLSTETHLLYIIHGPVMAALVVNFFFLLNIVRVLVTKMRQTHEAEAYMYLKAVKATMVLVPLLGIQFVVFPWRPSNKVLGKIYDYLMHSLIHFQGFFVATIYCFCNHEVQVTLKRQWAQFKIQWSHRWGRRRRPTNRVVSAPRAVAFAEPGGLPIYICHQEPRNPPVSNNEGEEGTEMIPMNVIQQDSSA
T3 sequence (looked up) 2: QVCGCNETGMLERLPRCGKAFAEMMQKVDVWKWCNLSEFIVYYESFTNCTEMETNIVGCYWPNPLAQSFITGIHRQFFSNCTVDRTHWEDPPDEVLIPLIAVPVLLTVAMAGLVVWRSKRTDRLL

T4: rat calcitonin receptor (rat, UniProt P32214 25-516)
T4 sequence (looked up): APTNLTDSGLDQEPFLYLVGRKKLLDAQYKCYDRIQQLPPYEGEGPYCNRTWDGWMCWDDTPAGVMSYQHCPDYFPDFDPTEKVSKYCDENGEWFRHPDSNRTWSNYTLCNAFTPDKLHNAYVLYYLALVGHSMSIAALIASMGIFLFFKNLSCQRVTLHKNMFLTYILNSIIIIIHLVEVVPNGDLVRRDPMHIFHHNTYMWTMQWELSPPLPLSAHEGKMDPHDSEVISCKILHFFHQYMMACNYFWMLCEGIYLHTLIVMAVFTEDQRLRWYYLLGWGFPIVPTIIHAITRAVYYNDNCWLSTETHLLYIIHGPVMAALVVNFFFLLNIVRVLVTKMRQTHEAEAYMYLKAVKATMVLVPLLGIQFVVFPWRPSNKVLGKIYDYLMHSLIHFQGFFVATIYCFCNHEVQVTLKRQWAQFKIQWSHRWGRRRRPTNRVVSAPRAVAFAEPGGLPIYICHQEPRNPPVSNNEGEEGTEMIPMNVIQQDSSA


Tests used:
Test in all cases: cell-based or functional assay
[1] = biological target: T1, human amylin receptor (calcitonin …)
[2] = biological target: T2, human calcitonin receptor
[3] = biological target: T3, rat amylin receptor (calcitonin …)
rat calcitonin receptor = biological target: T4, rat calcitonin receptor

| EC50 (cAMP production) [1] | Ratio (EC50 hCTR / EC50 hAMYR3) [1] | EC50 (cAMP production) [2] | EC50 (cAMP production) [3] | EC50 (cAMP production) (rat calcitonin receptor) | Binder |
| --- | --- | --- | --- | --- | --- |
| 0.703 nM | 11 | 7.65 nM | 0.0226 nM | 22.6 nM | K([γGlu-γGlu-C20 diacid])CNTATCATQRLANFLVHSSPNFPAILSPTNVGSNTY-NH2 (disulfide 2-7; N-terminus assumed; SMILES CC[C@H](C)[C@H](NC(=O)[C@H](C)NC(=O)[C@@H]1CCCN1C(=O)[C@H](Cc1ccccc1)NC(=O)[C@H](CC(N)=O)NC(=O)[C@@H]1CCCN1C(=O)[C@H](CO)NC(=O)[C@H](CO)NC(=O)[C@H](Cc1c[nH]cn1)NC(=O)[C@@H](NC(=O)[C@H](CC(C)C)NC(=O)[C@H](Cc1ccccc1)NC(=O)[C@H](CC(N)=O)NC(=O)[C@H](C)NC(=O)[C@H](CC(C)C)NC(=O)[C@H](CCCNC(=N)N)NC(=O)[C@H](CCC(N)=O)NC(=O)[C@@H](NC(=O)[C@H](C)NC(=O)[C@@H]1CSSC[C@H](NC(=O)[C@@H](N)CCCCNC(=O)CC[C@H](NC(=O)CC[C@H](NC(=O)CCCCCCCCCCCCCCCCCCC(=O)O)C(=O)O)C(=O)O)C(=O)N[C@@H](CC(N)=O)C(=O)N[C@@H]([C@@H](C)O)C(=O)N[C@@H](C)C(=O)N[C@@H]([C@@H](C)O)C(=O)N1)[C@@H](C)O)C(C)C)C(=O)N[C@@H](CC(C)C)C(=O)N[C@@H](CO)C(=O)N1CCC[C@H]1C(=O)N[C@H](C(=O)N[C@@H](CC(N)=O)C(=O)N[C@H](C(=O)NCC(=O)N[C@@H](CO)C(=O)N[C@@H](CC(N)=O)C(=O)N[C@H](C(=O)N[C@@H](Cc1ccc(O)cc1)C(N)=O)[C@@H](C)O)C(C)C)[C@@H](C)O) [Peptide 115 (SEQ ID NO: 115)] |
| 0.522 nM | 10 | 5.46 nM | 0.0103 nM | 1.82 nM | K([γGlu-C18 diacid])KCNTATCATQRLANFLRHSSNN[αMeF]GPILPPTEVGSNTY-NH2 (disulfide 3-8; N-terminus assumed; SMILES CC[C@H](C)[C@H](NC(=O)[C@@H]1CCCN1C(=O)CNC(=O)[C@](C)(Cc1ccccc1)NC(=O)[C@H](CC(N)=O)NC(=O)[C@H](CC(N)=O)NC(=O)[C@H](CO)NC(=O)[C@H](CO)NC(=O)[C@H](Cc1c[nH]cn1)NC(=O)[C@H](CCCNC(=N)N)NC(=O)[C@H](CC(C)C)NC(=O)[C@H](Cc1ccccc1)NC(=O)[C@H](CC(N)=O)NC(=O)[C@H](C)NC(=O)[C@H](CC(C)C)NC(=O)[C@H](CCCNC(=N)N)NC(=O)[C@H](CCC(N)=O)NC(=O)[C@@H](NC(=O)[C@H](C)NC(=O)[C@@H]1CSSC[C@H](NC(=O)[C@H](CCCCN)NC(=O)[C@@H](N)CCCCNC(=O)CC[C@H](NC(=O)CCCCCCCCCCCCCCCCC(=O)O)C(=O)O)C(=O)N[C@@H](CC(N)=O)C(=O)N[C@@H]([C@@H](C)O)C(=O)N[C@@H](C)C(=O)N[C@@H]([C@@H](C)O)C(=O)N1)[C@@H](C)O)C(=O)N[C@@H](CC(C)C)C(=O)N1CCC[C@H]1C(=O)N1CCC[C@H]1C(=O)N[C@H](C(=O)N[C@@H](CCC(=O)O)C(=O)N[C@H](C(=O)NCC(=O)N[C@@H](CO)C(=O)N[C@@H](CC(N)=O)C(=O)N[C@H](C(=O)N[C@@H](Cc1ccc(O)cc1)C(N)=O)[C@@H](C)O)C(C)C)[C@@H](C)O) [Peptide 15 (SEQ ID NO: 15)] |
| 0.553 nM | 10.4 | 5.75 nM | 0.0112 nM | 2.87 nM | K([γGlu-C18 diacid])KCNTATCATQRLANFL[Aib]HSSNNFGPILPPTNVGSNTY-NH2 (disulfide 3-8; N-terminus assumed; SMILES CC[C@H](C)[C@H](NC(=O)[C@@H]1CCCN1C(=O)CNC(=O)[C@H](Cc1ccccc1)NC(=O)[C@H](CC(N)=O)NC(=O)[C@H](CC(N)=O)NC(=O)[C@H](CO)NC(=O)[C@H](CO)NC(=O)[C@H](Cc1c[nH]cn1)NC(=O)C(C)(C)NC(=O)[C@H](CC(C)C)NC(=O)[C@H](Cc1ccccc1)NC(=O)[C@H](CC(N)=O)NC(=O)[C@H](C)NC(=O)[C@H](CC(C)C)NC(=O)[C@H](CCCNC(=N)N)NC(=O)[C@H](CCC(N)=O)NC(=O)[C@@H](NC(=O)[C@H](C)NC(=O)[C@@H]1CSSC[C@H](NC(=O)[C@H](CCCCN)NC(=O)[C@@H](N)CCCCNC(=O)CC[C@H](NC(=O)CCCCCCCCCCCCCCCCC(=O)O)C(=O)O)C(=O)N[C@@H](CC(N)=O)C(=O)N[C@@H]([C@@H](C)O)C(=O)N[C@@H](C)C(=O)N[C@@H]([C@@H](C)O)C(=O)N1)[C@@H](C)O)C(=O)N[C@@H](CC(C)C)C(=O)N1CCC[C@H]1C(=O)N1CCC[C@H]1C(=O)N[C@H](C(=O)N[C@@H](CC(N)=O)C(=O)N[C@H](C(=O)NCC(=O)N[C@@H](CO)C(=O)N[C@@H](CC(N)=O)C(=O)N[C@H](C(=O)N[C@@H](Cc1ccc(O)cc1)C(N)=O)[C@@H](C)O)C(C)C)[C@@H](C)O) [Peptide 129 (SEQ ID NO: 129)] |
| 1.21 nM | 8 | 9.56 nM | 0.0237 nM | 9.05 nM | K([γGlu-γGlu-C20 diacid])CNTATCATQRLAEFLRHSSNNFGPILPPTNVGSNTY-NH2 (disulfide 2-7; N-terminus assumed; SMILES CC[C@H](C)[C@H](NC(=O)[C@@H]1CCCN1C(=O)CNC(=O)[C@H](Cc1ccccc1)NC(=O)[C@H](CC(N)=O)NC(=O)[C@H](CC(N)=O)NC(=O)[C@H](CO)NC(=O)[C@H](CO)NC(=O)[C@H](Cc1c[nH]cn1)NC(=O)[C@H](CCCNC(=N)N)NC(=O)[C@H](CC(C)C)NC(=O)[C@H](Cc1ccccc1)NC(=O)[C@H](CCC(=O)O)NC(=O)[C@H](C)NC(=O)[C@H](CC(C)C)NC(=O)[C@H](CCCNC(=N)N)NC(=O)[C@H](CCC(N)=O)NC(=O)[C@@H](NC(=O)[C@H](C)NC(=O)[C@@H]1CSSC[C@H](NC(=O)[C@@H](N)CCCCNC(=O)CC[C@H](NC(=O)CC[C@H](NC(=O)CCCCCCCCCCCCCCCCCCC(=O)O)C(=O)O)C(=O)O)C(=O)N[C@@H](CC(N)=O)C(=O)N[C@@H]([C@@H](C)O)C(=O)N[C@@H](C)C(=O)N[C@@H]([C@@H](C)O)C(=O)N1)[C@@H](C)O)C(=O)N[C@@H](CC(C)C)C(=O)N1CCC[C@H]1C(=O)N1CCC[C@H]1C(=O)N[C@H](C(=O)N[C@@H](CC(N)=O)C(=O)N[C@H](C(=O)NCC(=O)N[C@@H](CO)C(=O)N[C@@H](CC(N)=O)C(=O)N[C@H](C(=O)N[C@@H](Cc1ccc(O)cc1)C(N)=O)[C@@H](C)O)C(C)C)[C@@H](C)O) [Peptide 116 (SEQ ID NO: 116)] |
| 0.246 nM | 5 | 1.35 nM | 0.0029 nM | 0.186 nM | {C18 diacid}-[γGlu]KCNTATCATQRLANFLVHSSNNFGPILPPTNVGSNTY-NH2 (disulfide 3-8) [Peptide 3 (SEQ ID NO: 3)] |
